The text below walks through data of paper PMC13241479, “GPLD1 is a scavenger carrier mediating lysosomal degradation of extracellular aberrant proteins” (Life Science Alliance, 2026).

This assay addresses T1, GPLD1-mCherry-sfGFP-His (glycosylphosphatidylinositol-specific phospholipase D1) (human, UniProt P80108 24-840).
T1 construct: glycosylphosphatidylinositol-specific phospholipase D1, human, full-length cDNA amplified from HepG2 cells; fusion of about 160 kD; also called GPLD1-RG; GPLD1-RFP-GFP; not shown: mCherry, C-terminal, kept; sfGFP, C-terminal, kept; His, C-terminal, kept
T1 sequence (looked up): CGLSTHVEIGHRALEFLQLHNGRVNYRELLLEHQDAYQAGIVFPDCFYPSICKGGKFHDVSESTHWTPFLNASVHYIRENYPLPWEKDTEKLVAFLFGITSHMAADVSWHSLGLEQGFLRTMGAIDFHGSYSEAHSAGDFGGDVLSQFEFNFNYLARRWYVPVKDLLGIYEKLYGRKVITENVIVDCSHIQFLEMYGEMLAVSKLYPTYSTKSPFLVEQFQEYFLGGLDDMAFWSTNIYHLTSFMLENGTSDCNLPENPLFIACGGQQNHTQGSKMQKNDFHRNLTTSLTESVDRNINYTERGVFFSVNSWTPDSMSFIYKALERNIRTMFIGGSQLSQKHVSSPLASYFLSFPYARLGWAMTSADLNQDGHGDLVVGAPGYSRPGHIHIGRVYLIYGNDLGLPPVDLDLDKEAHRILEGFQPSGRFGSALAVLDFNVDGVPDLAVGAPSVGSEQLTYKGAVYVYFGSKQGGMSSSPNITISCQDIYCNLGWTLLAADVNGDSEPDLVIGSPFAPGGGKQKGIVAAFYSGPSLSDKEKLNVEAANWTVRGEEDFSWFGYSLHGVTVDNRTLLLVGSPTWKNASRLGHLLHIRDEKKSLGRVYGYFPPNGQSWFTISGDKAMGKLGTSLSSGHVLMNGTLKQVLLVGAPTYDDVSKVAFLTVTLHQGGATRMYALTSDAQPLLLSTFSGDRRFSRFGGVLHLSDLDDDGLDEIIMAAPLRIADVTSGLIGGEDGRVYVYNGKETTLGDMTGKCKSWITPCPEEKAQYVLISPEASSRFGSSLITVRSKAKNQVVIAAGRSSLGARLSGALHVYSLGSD
Nature of the assay: co-IP; purified GPLD1-RG (40 nM) or clusterin-RG mixed with His-ALFA-SAA1 (500 nM) or ALFA-tagged Ab42 in PBS, 37°C with shaking for 2 h; aggregates removed at 20,000g; ALFA nanobody beads 2 h at 4°C; washed four times with PBS; immunoblot. As to conditions: both partners purified. (In general: In western blotting, separated proteins are transferred to a membrane and probed.)

B1: His-ALFA-SAA1-Full length (human SAA1 19-122 aa) (natural protein, UniProt P0DJI8 19-122, looked up)
chain: RSFFSFLGEAFDGARDMWRAYSDMREANYIGSDKYFHARGNYDAAKRGPGGAWAAEVITDARENIQRFFGHGAEDSLADQAANEWGRSGKDPNHFRPAGLPEKY
notes: The purification of the native full-length form is not described in the methods (only SAA1-N and Ab42 from inclusion bodies); source: E. coli BL21(DE3) pLysS, recombinant, used native; not shown: His, N-terminal, kept; ALFA, N-terminal, kept
As to B1, the binding result is reported as “binds”.

B2: His-ALFA-SAA1-N terminus (human SAA1 19-94 aa) (domain or fragment, UniProt P0DJI8 19-94, looked up)
chain: RSFFSFLGEAFDGARDMWRAYSDMREANYIGSDKYFHARGNYDAAKRGPGGAWAAEVITDARENIQRFFGHGAEDS
notes: serum amyloid A1, human, residues 19-94; the N-terminal 76 aa residues, the core amyloidogenic fragment; Prepared in 8 M urea-denatured form for all experiments; aggregates on dilution into PBS; also called His-ALFA-tagged SAA1-N; source: E. coli BL21(DE3) pLysS, purified from inclusion bodies under denaturing conditions (8 M urea, Co-NTA); not shown: His, N-terminal, kept; ALFA, N-terminal, kept
Take B2: the binding result was “binds”.
